Data reported in patent US11161908.

Target: human BAFF-R-GFP fusion protein expressed on the surface of mouse fibroblast (L) cells, clone D2C (human) (UniProt Q96RJ3)
Test: cell ELISA of hybridoma supernatant on (h)BAFF-R-expressing cells, anti-mouse IgG-HRP; same clone on parental L cell: 0.102

- OD 450 nm: 1.07 OD 450 nm
B1: mouse monoclonal antibody from hybridoma Clone 55 (antibody, V domains shown)
VH: QVTLKESGPGILKPSQTLSLTCSFSGFSLSTSGMGVGWIRQPSGKGLEWLAHIWWDDDKYYNSSLKSHLTISKDTSRNQVFLKITSVDTADTATYYCARSFGYGLDYWGQGTTLTVSS
VL: DIQMTQTTSSLSASLGDRVTISCSASQDISNYLNWYQQKPDGTVKLLIYYTSSLHSGVPSRFSGSGSGTDYSLTISSLEPEDIATYYCHQFSELPWTFGGGTKLEIK
